Reference: paper PMC3472039 (Journal of molecular biology, 2012)
Square brackets hold non-standard residues; d marks the D form. Ends that are not written are not given here. SeMet = C[Se]CC[C@H](N)C(=O)O

Target: the molecule itself
Assay: crystal structure

B1: SeMet-QkI-Qua1(14-67) C35S (domain or fragment, UniProt Q9QYS9 14-67, looked up)
chain: TPDYL[SeMet]QL[SeMet]NDKKL[SeMet]SSLPNFSGIFNHLERLLDEEISRVRKD[SeMet]YNDTLNGSTEK
- stoichiometry N: 2
